From patent US20250188130A1

Target: E glycoprotein of DENV2-FL-Mature (fusion loop N103S and G106L), on virus (Dengue virus serotype 2, strain S16803 (engineered)) (UniProt P18356)
Test: cell-based or functional assay

1M7 (antibody)
neutralization (FRNT, EC50) (logs (reduction against DENV2)): 2
